The term Kd denotes the constant that tells how readily two partners part at equilibrium. Usually koff stands for a measure of how fast the partners let go of each other. Read a high koff as fast dissociation.

Drawing on article PMC7300195 (2020), this text covers Kd and koff for one molecule.

Common to all, as to experiment: BLI
(In general: In BLI a coated tip is dipped into the sample, and binding shifts an interference pattern.)

For one assay, the target named is Stalk G.
The next assay has as its target Mono G.
For assay [1], the target named is hexameric NiV G: two G ectodomain headgroups linked by a foldon trimerization domain via short glycine linkers (Nipah virus (Malaysia) | ).
Assay [2] deals with NiV G ferritin 24-mer nanoparticle: NiV G ectodomain residues 172-602 linked to the C-terminus of fe (Nipah virus (Malaysia), UniProt Q9IH62 172-602).
For assay [3], the target named is NiV G trimer: NiV G head domain residues 172-602 coupled to an N-terminal foldon domain ( | Nipah virus (Malaysia), UniProt Q9IH62 172-602).

B1: m102.4 monoclonal antibody (HeV G-specific antibody), human IgG1/kappa (antibody, V domains shown)
VH: EVQVIQSGADVKKPGSSVKVSCKSSGGTFSKYAINWVRQAPGQGLEWMGGIIPILGIANYAQKFQGRVTITTDESTSTAYMELSSLRSEDTAVYYCARGWGREQLAPHPSQYYYYYYGMDVWGQGTTVTVSS
VL: EIVMTQSPGTLSLAPGERATLSCWASQSVRNNYLAWYQQKPGQAPRLVIYNGSTRATGIPDRFSGSGSGTDFTLTISRLDPEDFAVYYCQQYGNSRRVTFGGGTKVEIK
As for B1, the equilibrium dissociation constant (Kd) with Stalk G came to 112 nM; with Mono G, 402 nM; in assay [1], 86.2 nM; in assay [2], 17.8 nM; in assay [3], 153 nM. Also, the koff with Stalk G turned out to be 0.0849 s⁻¹; with Mono G, 0.131 s⁻¹; in assay [1] it was 0.0596 s⁻¹; in assay [2] it was 0.0279 s⁻¹; in assay [3] it was 0.0857 s⁻¹.
